Measurements taken from US20110195896A1 (CASE WESTERN RESERVE UNIVERSITY, published 2011).
Where a chain is given by its changes, count along the chain named. Ends that are not written are not given here.

B1: [His^A8, Asp^B28, Pro^B29]-SCI (57-mer single-chain insulin analogue, linker GGGPRR) (ligand)
chain: FVNQHLCGSHLVEALYLVCGERGFFYTDPTGGGPRRGIVEQCCHSICSLYQLENYCN
modifications: ends and bridges not checked; cysteine pairing not given here
notes: Made by total chemical synthesis and native ligation
B2: His^A8, Asp^B10, Asp^B28, Pro^B29 SCI (ligand)
chain: B1 chain with H10D
notes: also called SCI (His^A8, Asp^B10, Asp^B28, and Pro^B29); SCI containing the substitution Asp^B10

Columns and labels:
Type I IGF receptor [1] = target: T1, Type I IGF receptor (UniProt P08069 31-1367); experiment: competitive displacement of labelled tracer from IGFR
T1 construct: also called IGF-I RECEPTOR; Insulin-like Growth Factor Receptor
Method: Receptor-Binding Assays. […] This assay employs the purified epitope-tagged receptor (IR-A, IR-B, or IGFR) using a microtiter-plate antibody-capture assay as known in the art. The epitope tag consists of three tandem repeats of the FLAG epitope. Microtiter strip plates (Nunc Maxisorb) were incubated overnight at 4° C. with anti-FLAG IgG (100 μl/well of […] in phosphate-buffered saline). Binding data were analyzed by a single-site heterologous competition binding model. A corresponding microtiter plate antibody assay using the epitope-tagged IGF Type I receptor was employed to assess cross-binding of analogues to this homologous receptor.

Type I IGF receptor [2] = target: T1, Type I IGF receptor; experiment: competitive displacement of 125I-IGF-1 from IGFR

Row | Kd (Type I IGF receptor [1]) | Kd (Type I IGF receptor [2]) | Binder
1 | 27.6 nM | 27.6 nM | B1
2 | 9.89 nM | – | B2
